B1: mouse mGluR6 (metabotropic glutamate receptor 6), wild type, complex N-glycosylated form (upper dimer band, band C) [modified: complex N-glycosylation (Endo H-resistant, PNGase F-sensitive); N-glycosylation sites N290, N445 … (parent)
chain 1: AGSVRLAGGLTLGGLFPVHARGAAGRACGTLKKEQGVHRLEAMLYALDRINADPELLPGVRLGARLLDTCSRDTYALEQALSFVQALIRGRGDGEEASVRCPGGVPPLRAAPPERVVAVVGASASSVSIMVANVLRLFAIPQISYASTAPELSDSTRYDFFSRVVPPDSYQAQAMVDIVRALGWNYVSTLASEGNYGESGVEAFVQISREAGGVCIAQSIKIPREPKPGEFHKVIRRLMETPNARGIIIFANEDDIRRVLEATRQANLTGHFLWVGSDSWGSKISPILNLEEEAVGAITILPKRASIDGFDQYFMTRSLENNRRNIWFAEFWEENFNCKLTSSGGQSDDSTRKCTGEERIGQDSTYEQEGKVQFVIDAVYAIAHALHSMHQALCPGHTGLCPAMEPTDGRTLLHYIRAVRFNGSAGTPVMFNENGDAPGRYDIFQYQATNGSASSGGYQAVGQWAEALRLDMEALQWSGDPHEVPPSQCSLPCGPGERKKMVKGVPCCWHCEACDGYRFQVDEFTCEACPGHMRPTPNHTGCRPTPVVRLTWSSPWAALPLLLAVLGIMATTTIIATFMRHNDTPIVRASGRELSYVLLTGIFLIYAITFLMVAEPCAAVCASRRLLLGLGTTLSYSALLTKTNRIYRIFEQGKRSVTPPPFISPTSQLVITFGLTSLQVVGVIAWLGAQPPHSVIDYEEQRTVDPEQARGVLKCDMSDLSLIGCLGYSLLLMVTCTVYAIKARGVPETFNEAKPIGFTMYTTCIIWLAFVPIFFGTAQSAEKIYIQTTTLTVSLSLSASVSLGMLYVPKTYVILFHPEQNVQKRKRSLKKTSTMAAPPKSENSEDAK
chain 2: DCWLIEGDKGYVWLAICSQNQPPYETIPQHINSTVHDLRLNENKLKAVLYSSLNRFGNLTDLNLTKNEISYIEDGAFLGQTSLQVLQLGYNRLSNLTEGMLRGMSRLQFLFVQHNLIEVVTPTAFSECPSLISIDLSSNRLSRLDGATFASLASLMVCELAGNPFNCECDLFGFLAWLVVFNNVTKNYDRLQCESPREFAGYPLLVPRPYHSLNAITVLQAKCRNGSMPARPVSHPTPYSTDAQREPDENSGFNPDEILSVEPPASSTTDASAGPAIKLHQVTFTSATLVVIIPHPYSKMYVLVQYNNSYFSDVMTLKNKKEIVTLDKLRAHTEYTFCVTSLRNSRRFNHTCLTFTTRDLVPGDLAPSTSTTTHY
B2: mouse mGluR6 (metabotropic glutamate receptor 6), wild type, complex N-glycosylated form (upper dimer band, band C) [modified: complex N-glycosylation (Endo H-resistant, PNGase F-sensitive) … (parent)
chain 1: B1 chain 1
chain 2: QGDCWLIEGDKGFVWLAICSQNQPPYEAIPQQINNTIVDLRLNENRIRSVQYASLSRFGNLTYLNLTKNEIGYIEDGAFSGQFNLQVLQLGYNRLRNLTEGMLRGLSKLEYLYLQANLIEVVMASAFWECPNIVNIDLSMNRIQQLGSGTFAGLTKLSVCEIYSNPFYCSCELLGFLRWLAAFTNATQTHDRVQCESPPVYAGYFLLGQGRHGHQRSILSKLQSVCTEGSYTAEVLGPPRPVPGRSQPGHSPPPPPPEPSDMPCADDECFSGDGTTPLVILTTLVPQTEARPSMKVKQLTQNSATIMVQLPSPFNRMYTLEQYNNSKSFTVSKLTQPQEEIRLTNLYTLTNYTYCVVSTSSGTHHNHTCLTICLPKPPSPPGPVPSPSTATHY

Variants of: B1
Test: pull-down
Details: with ELFN2 extracellular domain fused to human Fc [mouse]; parent: 1; read off a plot

Variant | ratio to parent
chain 1 N267Q | 0.52
chain 1 N422Q | 0.04
chain 1 N450Q | 0.32
chain 1 N538Q | 0.32

Variants of: B2
Test: pull-down
Details: with ELFN1 extracellular domain fused to human Fc [mouse]; five times more transfected cells were used for 4Q; parent: 1; read off a plot

Variant | ratio to parent
chain 1 N267Q N422Q N450Q N538Q | 0.04

Same assay, conditions: with ELFN1 extracellular domain fused to human Fc [mouse]; parent: 1; read off a plot

Variant | ratio to parent
chain 1 N267Q | 0.59
chain 1 N422Q | 0.05
chain 1 N450Q | 0.6
chain 1 N538Q | 0.13

Source: PMC10973816
